Measured values published in US20210102001A1 (CHIMAGEN BIOSCIENCES, published 2021).

T1: human CD19 (His-tagged) (human, UniProt P15391 20-291)
T1 construct: Captured on chips carrying anti-histidine antibodies
T1 sequence (looked up): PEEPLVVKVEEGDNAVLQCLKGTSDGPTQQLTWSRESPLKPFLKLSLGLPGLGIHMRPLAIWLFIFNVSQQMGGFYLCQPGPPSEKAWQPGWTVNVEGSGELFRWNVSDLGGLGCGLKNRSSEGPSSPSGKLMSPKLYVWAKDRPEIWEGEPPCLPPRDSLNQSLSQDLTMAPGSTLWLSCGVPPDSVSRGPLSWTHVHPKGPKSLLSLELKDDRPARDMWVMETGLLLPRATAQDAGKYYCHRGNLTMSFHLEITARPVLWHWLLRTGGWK


What was measured:
human CD19 (His-tagged) [1] = target: T1, human CD19 (His-tagged); test: SPR (Biacore); CD19 captured on anti-His antibody chip, antibody injected at 5 concentrations
Experimental: (§1) A series of sample antibodies were assayed for SPR (Surface Plasmon Resonance) signals upon human CD19 binding on the Biacore platform. Kₐ, Kd and KD were calculated from the experimental results and used to evaluate affinity of the antibodies for human CD19. CD19 molecules as ligands were immobilized to chips conjugated with anti-histine antibodies. Sample antibodies, at 5 different concentrations, were injected to the system to be analyzed. Anti-CD3 antibody UCHT1 and anti-CD19 antibody HD37 were also examined as #20 and #21, respectively. The results are shonw in FIG. 7 and Table 15.

human CD3 = target: T2, human CD3 (human, UniProt P07766 23-126); test: SPR (Biacore); CD3 captured on anti-His antibody chip, antibody injected at 5 concentrations
T2 construct: not shown: A CD3 delta or gamma partner chain is possible if the reagent was a heterodimer
Experimental: as §1, with “CD3” for “CD19”, “Ka,” for “Kₐ,”, “CD3. CD3” for “CD19. CD19”, “analyzed.” for “analyzed. Anti-CD3 antibody UCHT1 and anti-CD19 antibody HD37 were also examined as #20 and #21, respectively. The results are shonw in FIG. 7 and Table 15.”

human CD3E = target: T3, human CD3E (human, UniProt P07766 23-126, limits assumed); test: SPR (BIAcore); human CD3E captured on anti-His antibody chip, antibody at 5 concentrations
T3 construct: Captured on chips carrying anti-histidine antibodies, 'using the same method' as the His-tagged CD19
Experimental: (§2) Binding affinity for human CD3E or human CD19 of the CD3×CD19 bispecific antibody was tested by BIAcore, and Kₐ, Kd and KD values of the antibody were calculated based on the results. His-tagged human CD19 was used as ligand and captured on chips conjugated with anti-histine antibodies. Candidate molecules in five different concentrations were analyzed for their affinity for CD19. Affinity for human CD3E was examined using the same method.

human CD19 (His-tagged) [2] = target: T1, human CD19 (His-tagged); test: SPR (BIAcore); His-tagged human CD19 captured on anti-His antibody chip, antibody at 5 concentrations
Experimental: as §2

human CD19 (His-tagged) [3] = target: T1, human CD19 (His-tagged); test: SPR (Biacore); CD19 captured on anti-His antibody chip, antibody injected at 5 concentrations; remark: listed apart in the source
Experimental: as §1, with “Affinity: Affinity kinetics studies based on human CD19-binding assays. A” for “A”, “analyzed.” for “analyzed. Anti-CD3 antibody UCHT1 and anti-CD19 antibody HD37 were also examined as #20 and #21, respectively. The results are shonw in FIG. 7 and Table 15.”

T3 sequence (P07766 23-126 limits assumed): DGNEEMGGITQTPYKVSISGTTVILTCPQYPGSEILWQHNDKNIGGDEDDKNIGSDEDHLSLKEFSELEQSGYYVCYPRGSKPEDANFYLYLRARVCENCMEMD
T2 sequence (P07766 23-126 limits assumed): as above

Binder | Kd (human CD19 (His-tagged) [1]) | Kd (human CD3) | Kd (human CD19 (His-tagged) [3]) | other results
Antibody #25, CD19×CD3 DICAD (bispecific antibody, name in Kabat numbering, Same mutations as #9, with the 9-residue linker; also called 025; Sample25; not shown: hinge-CH2-CH3) chain 1: DIQLTQSPASLAVSLGQRATISCKASQSVDYDGDSYLNWYQDIPGQPPKLLIYDASNLVSGIPPRFSGSGSGTDFTLNIHPVEKVDAATYHCQQSTEDPWTFGGGTKLEIKGGSGGSGGSEVQLVESGGGLVQPGGSLRLSCAASGYSFTGYTMNWVRDAPGKCLEWVALINPYKGVSTYNQKFKDRFTISVDKSKNTAYLQMNSLRAEDTAVYYCARSGYYGDSDWYFDVWGQGTLVTVSS chain 2: DIQMTQSPSSLSASVGDRVTITCRASQDIRNYLNWYQKKPGKAPKLLIYYTSRLESGVPSRFSGSGSGTDYTLTISSLQPEDFATYYCQQGNTLPWTFGCGTKVEIKGGSGGSGGSQVQLQQSGAELVRPGSSVKISCKASGYAFSSYWMNWVKKRPGQGLEWIGQIWPGDGDTNYNGKFKGKATLTADESSSTAYMQLSSLASEDSAVYFCARRETTTVGRYYYAMDYWGQGTSVTVSS | 1 nM | 34.9 nM | – | –
Antibody #43, CD19×CD3 DICAD (bispecific antibody, also called 043; Sample43; not shown: hinge-CH2-CH3) chain 1: DIQLTQSPASLAVSLGQRATISCKASQSVDYDGDSYLNWYQQIPGQPPKLLIYDASNLVSGIPPRFSGSGSGTDFTLNIHPVEKVDAATYHCQQSTEDPWTFGGGTKLEIKGGSGGSGGSEVQLVESGGGLVQPGGSLRLSCAASGYSFTGYTMNWVRDAPGKCLEWVALINPYKGVSTYNQKFKDRFTISVDKSKNTAYLQMNSLRAEDTAVYYCARSGYYGDSDWYFDVWGQGTLVTVSS chain 2: DIQMTQSPSSLSASVGDRVTITCRASQDIRNYLNWYQKKPGKAPKLLIYYTSRLESGVPSRFSGSGSGTDYTLTISSLQPEDFATYYCQQGNTLPWTFGCGTKVEIKGGSGGSGGSQVQLQQSGAELVRPGSSVKISCKASGYAFSSYWMNWVKQRPGQGLEWIGQIWPGDGDTNYNGKFKGKATLTADESSSTAYMQLSSLASEDSAVYFCARRETTTVGRYYYAMDYWGQGTSVTVSS | 0.537 nM | 269 nM | – | –
Antibody #63, DICAD CD19×CD3 (1:1) bispecific (bispecific antibody, also called 063; #63-CD3×CD19 bispecific) chain 1: EIVLTQSPATLSVTPGERATLSCSASSSVSYMHWYQKKPGQAPRLLIYDTSKLASGIPARFSGSGSGTDFTLTISSLEPEDFAVYYCFQGSVYPFTFGCGTKLEIKRTVAAEVQLVESGGGLVQPGGSLRLSCAASGFTFNTYAMNWVRKAPGKGLEWVGRIRSKYNNYATYYADSVDKGRFTISRDDSKNSLYLQMNSLKTEDTAVYYCVRHGNFGNSYVSWFAYWGQGTLVTVSS chain 2: EAVVTQEPSLTVSPGGTVTLTCRSSTGAVTTSNYANWVQDKPGQAPRGLIGGTNKRAPWTPARFSGSLLGGKAALTITGAQPEDEAGYYCALWYSNLWVFGGGTKLTVLRTVAAQVQLQESGPGLVKPSQTLSLTCTVSGGSISTSGMGVGWIRDHPGKCLEWIGHIWWDDDKRYNPALKSRVTISVDTSKNQFSLKLSSVTAADTAVYYCARMELWSYYFDYWGQGTTLTVSSASEPKSDKTHTCPPCPAPPVAGGPSVPLPPPKPKDTLMISRTPEVTCVVVDVSQEDPEVKFNWYVDGVGVHNAKTKPREEQFNSTYRVVSVLTVLHQDWLNGKEYKCKVSNKGLPSSIEKTISKAKGQPREPQVYTLPPCRDELTKNQVSLWCLVKGFYPSDIAVEWESNGQPENNYKTTPPVLDSDGSFFLYSKLTVDKSRWQQGNVFSCSVMHEALHNHYTQKSLSLSPGK chain 3: DKTHTCPPCPAPPVAGGPSVFLFPPKPKDTLMISRTPEVTCVVVDVSQEDPEVKFNWYVDGVEVHNAKTKPREEQFNSTYRVVSVLTVLHQDWLNGKEYKCKVSNKGLPSSIEKTISKAKGQPREPQVCTLPPSRDELTKNQVSLSCAVKGFYPSDIAVEWESNGQPENNYKTTPPVLDSDGSFFLVSKLTVDKSRWQQGNVFSCSVMHEALHNRFTQKSLSLSPGK | – | – | – | Kd (human CD3E): 31.4 nM; koff (human CD3E): 0.0153 s⁻¹; kon (human CD3E): 488000 M⁻¹ s⁻¹; Kd (human CD19 (His-tagged) [2]): 1.83 nM; koff (human CD19 (His-tagged) [2]): 0.000669 s⁻¹; kon (human CD19 (His-tagged) [2]): 365000 M⁻¹ s⁻¹
Antibody #1, CD19×CD3 Di-Diabody from HD37 and UCHT1, no interface mutations (bispecific antibody, Peptide 1: CD19VL-linker-CD3VH-hinge-CH2-CH3; also called 001; Sample01; not shown: hinge-CH2-CH3) chain 1: DIQLTQSPASLAVSLGQRATISCKASQSVDYDGDSYLNWYQQIPGQPPKLLIYDASNLVSGIPPRFSGSGSGTDFTLNIHPVEKVDAATYHCQQSTEDPWTFGGGTKLEIKRTVAAEVQLVESGGGLVQPGGSLRLSCAASGYSFTGYTMNWVRQAPGKGLEWVALINPYKGVSTYNQKFKDRFTISVDKSKNTAYLQMNSLRAEDTAVYYCARSGYYGDSDWYFDVWGQGTLVTVSS chain 2: DIQMTQSPSSLSASVGDRVTITCRASQDIRNYLNWYQQKPGKAPKLLIYYTSRLESGVPSRFSGSGSGTDYTLTISSLQPEDFATYYCQQGNTLPWTFGQGTKVEIKRTVAAQVQLQQSGAELVRPGSSVKISCKASGYAFSSYWMNWVKQRPGQGLEWIGQIWPGDGDTNYNGKFKGKATLTADESSSTAYMQLSSLASEDSAVYFCARRETTTVGRYYYAMDYWGQGTSVTVSS | 0.769 nM | – | – | –
Antibody #9, CD19×CD3 DICAD (bispecific antibody, name in Kabat numbering, also called 009; not shown: hinge-CH2-CH3) chain 1: DIQLTQSPASLAVSLGQRATISCKASQSVDYDGDSYLNWYQDIPGQPPKLLIYDASNLVSGIPPRFSGSGSGTDFTLNIHPVEKVDAATYHCQQSTEDPWTFGGGTKLEIKRTVAAEVQLVESGGGLVQPGGSLRLSCAASGYSFTGYTMNWVRDAPGKCLEWVALINPYKGVSTYNQKFKDRFTISVDKSKNTAYLQMNSLRAEDTAVYYCARSGYYGDSDWYFDVWGQGTLVTVSS chain 2: DIQMTQSPSSLSASVGDRVTITCRASQDIRNYLNWYQKKPGKAPKLLIYYTSRLESGVPSRFSGSGSGTDYTLTISSLQPEDFATYYCQQGNTLPWTFGCGTKVEIKRTVAAQVQLQQSGAELVRPGSSVKISCKASGYAFSSYWMNWVKKRPGQGLEWIGQIWPGDGDTNYNGKFKGKATLTADESSSTAYMQLSSLASEDSAVYFCARRETTTVGRYYYAMDYWGQGTSVTVSS | 0.26 nM | 172 nM | – | –
HD37, anti-CD19 parental antibody (#21) (antibody, V domains shown, also called 021) VH: QVQLQQSGAELVRPGSSVKISCKASGYAFSSYWMNWVKQRPGQGLEWIGQIWPGDGDTNYNGKFKGKATLTADESSSTAYMQLSSLASEDSAVYFCARRETTTVGRYYYAMDYWGQGTSVTVSS VL: DIQLTQSPASLAVSLGQRATISCKASQSVDYDGDSYLNWYQQIPGQPPKLLIYDASNLVSGIPPRFSGSGSGTDFTLNIHPVEKVDAATYHCQQSTEDPWTFGGGTKLEIK | 0.537 nM | – | 3.81 nM | binding result (human CD3): no binding
Antibody #54, TRIAD CD19×CD3 (Fab arm anti-CD19) (bispecific antibody) chain 1: DIQLTQSPASLAVSLGQRATISCKASQSVDYDGDSYLNWYQKIPGQPPKLLIYDASNLVSGIPPRFSGSGSGTDFTLNIHPVEKVDAATYHCQQSTEDPWTFGCGTKLEIK chain 2: EVQLVESGGGLVQPGGSLRLSCAASGYSFTGYTMNWVRKAPGKGLEWVALINPYKGVSTYNQKFKDRFTISVDKSKNTAYLQMNSLRAEDTAVYYCARSGYYGDSDWYFDVWGQGTLVTVSS chain 3: DIQMTQSPSSLSASVGDRVTITCRASQDIRNYLNWYQDKPGKAPKLLIYYTSRLESGVPSRFSGSGSGTDYTLTISSLQPEDFATYYCQQGNTLPWTFGQGTKVEIK chain 4: QVQLQQSGAELVRPGSSVKISCKASGYAFSSYWMNWVKDRPGQCLEWIGQIWPGDGDTNYNGKFKGKATLTADESSSTAYMQLSSLASEDSAVYFCARRETTTVGRYYYAMDYWGQGTSVTVSS chain 5: QVQLQQSGAELVRPGSSVKISCKASGYAFSSYWMNWVKQRPGQGLEWIGQIWPGDGDTNYNGKFKGKATLTADESSSTAYMQLSSLASEDSAVYFCARRETTTVGRYYYAMDYWGQGTSVTVSS chain 6: DIQLTQSPASLAVSLGQRATISCKASQSVDYDGDSYLNWYQQIPGQPPKLLIYDASNLVSGIPPRFSGSGSGTDFTLNIHPVEKVDAATYHCQQSTEDPWTFGGGTKLEIK | – | – | 0.806 nM | –
Antibody #50, TRIAD CD19×CD3 (Fab arm anti-CD19) (bispecific antibody) chain 1: DIQMTQSPSSLSASVGDRVTITCRASQDIRNYLNWYQKKPGKAPKLLIYYTSRLESGVPSRFSGSGSGTDYTLTISSLQPEDFATYYCQQGNTLPWTFGCGTKVEIK chain 2: QVQLQQSGAELVRPGSSVKISCKASGYAFSSYWMNWVKKRPGQGLEWIGQIWPGDGDTNYNGKFKGKATLTADESSSTAYMQLSSLASEDSAVYFCARRETTTVGRYYYAMDYWGQGTSVTVSS chain 3: DIQLTQSPASLAVSLGQRATISCKASQSVDYDGDSYLNWYQDIPGQPPKLLIYDASNLVSGIPPRFSGSGSGTDFTLNIHPVEKVDAATYHCQQSTEDPWTFGGGTKLEIK chain 4: EVQLVESGGGLVQPGGSLRLSCAASGYSFTGYTMNWVRDAPGKCLEWVALINPYKGVSTYNQKFKDRFTISVDKSKNTAYLQMNSLRAEDTAVYYCARSGYYGDSDWYFDVWGQGTLVTVSS chain 5: QVQLQQSGAELVRPGSSVKISCKASGYAFSSYWMNWVKQRPGQGLEWIGQIWPGDGDTNYNGKFKGKATLTADESSSTAYMQLSSLASEDSAVYFCARRETTTVGRYYYAMDYWGQGTSVTVSS chain 6: DIQLTQSPASLAVSLGQRATISCKASQSVDYDGDSYLNWYQQIPGQPPKLLIYDASNLVSGIPPRFSGSGSGTDFTLNIHPVEKVDAATYHCQQSTEDPWTFGGGTKLEIK | – | – | 1.73 nM | –
